Target: FGF ligands
Assay: cell-based or functional assay

B1: FGFR1-CCD fusion protein (protein)
chain: RPSPTLPEQAQPWGAPVEVESFLVHPGDLLQLRCRLRDDVQSINWLRDGVQLAESNRTRITGEEVEVQDSVPADSGLYACVTSSPSGSDTTYFSVNVSDALPSSEDDDDDDDSSSEEKETDNTKPNPVAPYWTSPEKMEKKLHAVPAAKTVKFKCPSSGTPNPTLRWLKNGKEFKPDHRIGGYKVRYATGSIIMDSVVPSDKGNYTCIVENEYGSINHTYQLDVVERSPHRPILQAGLPANKTVALGSNVEFMCKVYSDPQPHIQWLKHIEVNGSKIGPDNLPYVQILKTAGVNTTDKEMEVLHLRNVSFEDAGEYTCLAGNSIGLSHHSAWLTVLEALEERPAVMLKEFMGYQGPPGPPGPPGIPGNHGNNGNNGATGHEGAKGEKGDKGDLGPRGERGQHGPKGEKGYPGIPGYCGPPGPPGPPGIPGNHGNNGNNGATGHEGAKGEKGDKGDLGPRGERGQHGPKGEKGYPGIPDYKDDDDKLQISSTVAAAHHHHHHV
With B1 the MTT assay of HUVEC cells (cell growth / metabolic activity) was < 50%.

Source: patent publication US20220324943A1
